Numbering of substitutions follows the chain as printed. Values belong to the binder of their own block, whether it stands above or below them.
Key:
[1] = molecular target: T1, soluble EGF-r purified from A431 cell membranes (Sigma, E-3641) (human, UniProt P00533 25-1210, limits assumed); test: in solution by ELISA, Scatchard analysis
T1 construct: The BIAcore methods say that either this protein or the recombinant extracellular domain of EGFr was immobilized; also called purified A431 cell membrane-derived EGFr protein
Method: After incubation, 70 μl of each mixture was transferred into the wells of 96-well microtiter plates previously coated with the same monoclonal antibody (100 μl/well, at 2 μg/ml in coating buffer) and incubated for 15 min at room temperature.

[2] = molecular target: T2, human epidermal growth factor receptor (EGF-r) on the surface of human carcinoma cells (A431, SW948, … (human, UniProt P00533 25-1210)); test: inhibition of 125I-EGF binding to A431 cells (FIG. 36)
T2 construct: whole, on cells; also called surface expressed EGF-r

[3] = molecular target: T1, soluble EGF-r purified from A431 cell …; test: BIAcore, solid phase, antigen immobilized at 228 RU
Method: Determination of affinity constants of fully human Mabs by BIAcore: Affinity measurement of purified human monoclonal antibodies, Fab fragments, or hybridoma supernatants by plasmon resonance was carried out using the BIAcore 2000 instrument, using general procedures outlined by the manufacturers.
Based upon the general procedures outlined by the manufacture, kinetic analyses of the antibodies were performed using antigens immobilized onto the sensor surface at a low density. […] The dissociation (kd or koff) and association (ka or kₒₙ) rates were determined using the software provided by the manufacturer (BIA evaluation 2.1).

[4] = molecular target: T1, soluble EGF-r purified from A431 cell …; test: BIAcore, solid phase, antigen immobilized at 818 RU
[5] = molecular target: T1, soluble EGF-r purified from A431 cell …; test: solid phase (BIAcore) and solution measurements
[6] = molecular target: T2, human epidermal growth factor receptor …; test: inhibition of [125I]EGF (0.1 nM) binding to A431 cells
From the text: The plates were washed five times, air-dried and counted in a scintillation counter.

[7] = molecular target: T2, human epidermal growth factor receptor …; test: inhibition of [125I]EGF binding to SW948 cells

B3: antibody secreted by the hybridoma E2.4 (antibody, human IgG2, V domains shown)
VH: VSGGSINSGDYYWSWIRQHPGKGLEWIGSIYYSGNTFYNPSLKSRVTISLDTSKNQFSLKLSSVTAADTAVCYCARNIVTTGAFDIWGQGTMVTVSS
VL: TITCQASQDITIYLNWYQQKPGKAPKLLINDASSLETGVPLRFSGSGSGTDFTFTISSLQPEDIATYYCQQYDHLPLTFGGGTKVAIKR
notes: Fully human IgG2 with a kappa light chain
Kd [1]: 0.11 nM
Kd [4]: 0.035 nM
koff [4]: 9.78e-05 s⁻¹
kon [4]: 2.8e+06 M⁻¹ s⁻¹
concentration at which inhibition of EGF binding begins [2]: ~8 nM

B4: antibody secreted by the hybridoma E7.6.3 (antibody, human IgG2, V domains shown)
VH: VSGGSVSSGDYYWTWIRQSPGKGLEWIGHIYYSGNTNYNPSLKSRLTISIDTSKTQFSLKLSSVTAADTAIYYCVRDRVTGAFDIWGQGTMVTSS
VL: B3 VL with T11S, I12N, N30Y, S34N, L41S, Y68F, Q71H, Y72F, T78A, A86E
notes: Fully human IgG2 with a kappa light chain; also called E7.6.3 MAb
Kd [5]: 0.05 nM
IC50 [6]: 3 nM
IC50 [7]: 0.9 nM

Further binders by falling Kd [1], results first:

Kd [1]: 0.11 nM
concentration at which inhibition of EGF binding begins [2]: ~8 nM
Kd [3]: 0.16 nM
koff [3]: 0.0003 s⁻¹
kon [3]: 1.9e+06 M⁻¹ s⁻¹
B1: antibody secreted by the hybridoma E2.11 (antibody, human IgG2, V domains shown)
VH: VSGGSVSSGDYYWSWIRQPPGKGLEWIGHLYYSGNTNYNPSLKSRVTISLDTSKNQFSLKLSSVTAADTAVYYCARDFLTGSFFDYWGQGTLVTVSS
VL: B3 VL with T11S, I12N, S34D, L41S, F43I, S58N, H74S, A86E, K88R
notes: as for B3

Kd [1]: 0.11 nM
concentration at which inhibition of EGF binding begins [2]: ~8 nM
B2: antibody secreted by the hybridoma E1.1 (antibody, human IgG2, V domains shown)
VH: VSGGSINSGDYYWSWIRQHPGKGLDCIGYIYYSGSTYYNPSLKSRVTISVDTSKNQFFLKLTSVTAADTAVYYCARSTVVNPGWFDPWGQGTLVTVSS
VL: TITCQASQDINNYLNWFQQKPGKAPKVLIHDASNLETGGPSRFSGSGSGTDFTFTISGLQPEDIATYYCQQYESLPLTFGGGTKVEIKR
notes: as for B3

— patent US20060183887A1 (Amgen, published 2006)
